# From US20240066131A1 (Protagonist Therapeutics, Inc., priority 2020, published 2024)
# Starred links: 1 amine or outer side, 2 acyl side, 3 side chain; linkers in the order of their positions; H or OH if unused. Non-standard residues stand in square brackets, D forms with d. Groups on a side chain read outwards from the residue. Primed or numbered codes have the meaning given here. *: point of attachment. Tet2 = (S)-2-amino-4-(1H-tetrazol-5-yl)butanoic acid, O=C([C@H](CCc1nn[nH]n1)N[*:1])[*:2]; ButanoicP = (R)-4-(pyrrolidin-2-yl)butanoic acid, O=C(CCC[C@@H]1CCCN1[*:1])[*:2]; Ala(1H-tetrazol-5-yl) = N[C@@H](Cc1nnn[nH]1)C(=O)O; Dip = N[C@H](C(=O)O)C(c1ccccc1)c1ccccc1; His(τ-Me) = Cn1cnc(C[C@H](N)C(=O)O)c1; Stearoyl = CCCCCCCCCCCCCCCCCC(=O)*; Palmitoyl = CCCCCCCCCCCCCCCC(=O)*; Myristoyl = CCCCCCCCCCCCCC(=O)*; β3hF = N[C@H](CC(=O)O)Cc1ccccc1; (n-hexyl)Gly = n-hexyl glycine; Tle = CC(C)(C)[C@H](N)C(=O)O; hLeu = CC(C)CC[C@H](N)C(=O)O; Isovaleryl = CC(C)CC(=O)*; hIle′ = not defined here; AEEA = NCCOCCOCC(=O)O; Ahx = NCCCCCC(=O)O; βAla = NCCC(=O)O
# Target: T1, human ferroportin (SLC40A1) fused in frame with GFP, stably expressed in HEK293 cells (human, UniProt Q9NP59 1-571)
# T1 sequence (looked up): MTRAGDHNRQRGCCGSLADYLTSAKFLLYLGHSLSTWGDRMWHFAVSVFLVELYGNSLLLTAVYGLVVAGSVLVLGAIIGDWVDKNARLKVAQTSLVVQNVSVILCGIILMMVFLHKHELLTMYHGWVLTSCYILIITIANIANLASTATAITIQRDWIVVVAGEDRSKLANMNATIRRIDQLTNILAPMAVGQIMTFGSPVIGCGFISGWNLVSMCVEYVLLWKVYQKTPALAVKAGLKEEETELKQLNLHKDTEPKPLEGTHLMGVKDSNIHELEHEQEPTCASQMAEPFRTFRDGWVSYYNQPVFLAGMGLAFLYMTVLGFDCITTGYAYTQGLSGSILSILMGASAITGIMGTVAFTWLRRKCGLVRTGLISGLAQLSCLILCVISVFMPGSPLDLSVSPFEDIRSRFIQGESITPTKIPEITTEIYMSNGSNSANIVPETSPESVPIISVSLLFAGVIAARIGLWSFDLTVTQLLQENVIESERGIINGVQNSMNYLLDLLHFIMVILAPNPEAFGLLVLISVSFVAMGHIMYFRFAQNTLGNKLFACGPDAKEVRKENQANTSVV
# Experiment: cell-based or functional assay
row,Binder,FPN EC50
1,Isovaleryl-[Ala(1H-tetrazol-5-yl)]TH[Dip]PIIK([Ahx-Palmitoyl])[β3hF]-NH2 (SMILES CCCCCCCCCCCCCCCC(=O)NCCCCCC(=O)NCCCC[C@H](NC(=O)[C@@H](NC(=O)[C@@H](NC(=O)[C@@H]1CCCN1C(=O)[C@@H](NC(=O)[C@H](Cc1c[nH]cn1)NC(=O)[C@@H](NC(=O)[C@H](Cc1nnn[nH]1)NC(=O)CC(C)C)[C@@H](C)O)C(c1ccccc1)c1ccccc1)[C@@H](C)CC)[C@@H](C)CC)C(=O)N[C@H](CC(N)=O)Cc1ccccc1) [Isovaleric Acid-[Tet1]-T-H-[Dpa]-P-I-I-[Lys(Ahx_Palm)]-[bhPhe]-NH2],86.8 nM
2,Isovaleryl-[Ala(1H-tetrazol-5-yl)]T[His(τ-Me)][Dip]PAIK([Ahx-Palmitoyl])-NH2 (SMILES CCCCCCCCCCCCCCCC(=O)NCCCCCC(=O)NCCCC[C@H](NC(=O)[C@@H](NC(=O)[C@H](C)NC(=O)[C@@H]1CCCN1C(=O)[C@@H](NC(=O)[C@H](Cc1cn(C)cn1)NC(=O)[C@@H](NC(=O)[C@H](Cc1nnn[nH]1)NC(=O)CC(C)C)[C@@H](C)O)C(c1ccccc1)c1ccccc1)[C@@H](C)CC)C(N)=O) [Isovaleric Acid-[Tet1]-T-[His_1Me]-[Dpa]-P-A-I-[Lys(Ahx_Palm)]-NH2],30.2 nM
3,Isovaleryl-ETH[Dip]P[Tle]IK([Ahx-Palmitoyl])[β3hF]-NH2 (SMILES CCCCCCCCCCCCCCCC(=O)NCCCCCC(=O)NCCCC[C@H](NC(=O)[C@@H](NC(=O)[C@@H](NC(=O)[C@@H]1CCCN1C(=O)[C@@H](NC(=O)[C@H](Cc1c[nH]cn1)NC(=O)[C@@H](NC(=O)[C@H](CCC(=O)O)NC(=O)CC(C)C)[C@@H](C)O)C(c1ccccc1)c1ccccc1)C(C)(C)C)[C@@H](C)CC)C(=O)N[C@H](CC(N)=O)Cc1ccccc1) [Isovaleric Acid-E-T-H-[Dpa]-P-[t-BuGly]-I-[Lys(Ahx_Palm)]-[bhPhe]-NH2],40.3 nM
4,Isovaleryl-ETH[Dip]PAIK([βAla-Palmitoyl])[β3hF]-NH2 [Isovaleric Acid-E-T-H-[Dpa]-P-A-I-[Lys(bAla_Palm)]-[bhPhe]-NH2],62.9 nM
5,Isovaleryl-[Tet2]T[His(τ-Me)][Dip]PIIK([Ahx-Palmitoyl])[β3hF]-NH2 (SMILES CCCCCCCCCCCCCCCC(=O)NCCCCCC(=O)NCCCC[C@H](NC(=O)[C@@H](NC(=O)[C@@H](NC(=O)[C@@H]1CCCN1C(=O)[C@@H](NC(=O)[C@H](Cc1cn(C)cn1)NC(=O)[C@@H](NC(=O)[C@H](CCc1nn[nH]n1)NC(=O)CC(C)C)[C@@H](C)O)C(c1ccccc1)c1ccccc1)[C@@H](C)CC)[C@@H](C)CC)C(=O)N[C@H](CC(N)=O)Cc1ccccc1) [Isovaleric Acid-[Tet2]-T-[His_1Me]-[Dpa]-P-I-I-[Lys(Ahx_Palm)]-[bhPhe]-NH2],101 nM
6,Isovaleryl-ETH[Dip]PAIK([AEEA-AEEA-Ahx-Palmitoyl])[β3hF]-NH2 (SMILES CCCCCCCCCCCCCCCC(=O)NCCCCCC(=O)NCCOCCOCC(=O)NCCOCCOCC(=O)NCCCC[C@H](NC(=O)[C@@H](NC(=O)[C@H](C)NC(=O)[C@@H]1CCCN1C(=O)[C@@H](NC(=O)[C@H](Cc1c[nH]cn1)NC(=O)[C@@H](NC(=O)[C@H](CCC(=O)O)NC(=O)CC(C)C)[C@@H](C)O)C(c1ccccc1)c1ccccc1)[C@@H](C)CC)C(=O)N[C@H](CC(N)=O)Cc1ccccc1) [Isovaleric Acid-E-T-H-[Dpa]-P-A-I-[Lys(1PEG2_1PEG2_Ahx_Palm)]-[bhPhe]-NH2],63.5 nM
7,Isovaleryl-ETH[Dip]PLIK([Ahx-Palmitoyl])[β3hF]-NH2 [Isovaleric Acid-E-T-H-[Dpa]-P-L-I-[Lys(Ahx_Palm)]-[bhPhe]-NH2],372 nM
8,Isovaleryl-ETH[Dip]PAIK([Ahx-C22])[β3hF]-NH2 [Isovaleric Acid-E-T-H-[Dpa]-P-A-I-[Lys(Ahx_C22)]-[bhPhe]-NH2],1330 nM
9,Isovaleryl-ETH[Dip]P[hIle′]IK([Ahx-Palmitoyl])[β3hF]-NH2 [Isovaleric Acid-E-T-H-[Dpa]-P-[hIle]-I-[Lys(Ahx_Palm)]-[bhPhe]-NH2],228 nM
10,Isovaleryl-ETH[Dip]PAIK([Ahx-Myristoyl])[β3hF]-NH2 [Isovaleric Acid-E-T-H-[Dpa]-P-A-I-[Lys(Ahx_C14)]-[bhPhe]-NH2],92.4 nM
11,Isovaleryl-ETH[Dip]PAK([Ahx-Palmitoyl])-NH2 (SMILES CCCCCCCCCCCCCCCC(=O)NCCCCCC(=O)NCCCC[C@H](NC(=O)[C@H](C)NC(=O)[C@@H]1CCCN1C(=O)[C@@H](NC(=O)[C@H](Cc1c[nH]cn1)NC(=O)[C@@H](NC(=O)[C@H](CCC(=O)O)NC(=O)CC(C)C)[C@@H](C)O)C(c1ccccc1)c1ccccc1)C(N)=O) [Isovaleric Acid-E-T-H-[Dpa]-P-A-[Lys(Ahx_Palm)]-NH2],193 nM
12,Isovaleryl-[Ala(1H-tetrazol-5-yl)]T[His(τ-Me)][Dip]PIIK([Ahx-Palmitoyl])[β3hF]-NH2 [Isovaleric Acid-[Tet1]-T-[His_1Me]-[Dpa]-P-I-I-[Lys(Ahx_Palm)]-[bhPhe]-NH2],33.4 nM
13,Isovaleryl-ETH[Dip]PVIK([Ahx-Palmitoyl])[β3hF]-NH2 (SMILES CCCCCCCCCCCCCCCC(=O)NCCCCCC(=O)NCCCC[C@H](NC(=O)[C@@H](NC(=O)[C@@H](NC(=O)[C@@H]1CCCN1C(=O)[C@@H](NC(=O)[C@H](Cc1c[nH]cn1)NC(=O)[C@@H](NC(=O)[C@H](CCC(=O)O)NC(=O)CC(C)C)[C@@H](C)O)C(c1ccccc1)c1ccccc1)C(C)C)[C@@H](C)CC)C(=O)N[C@H](CC(N)=O)Cc1ccccc1) [Isovaleric Acid-E-T-H-[Dpa]-P-V-I-[Lys(Ahx_Palm)]-[bhPhe]-NH2],199 nM
14,Isovaleryl-ETH[Dip]PIIK([Ahx-Palmitoyl])[β3hF]-NH2 [Isovaleric Acid-E-T-H-[Dpa]-P-I-I-[Lys(Ahx_Palm)]-[bhPhe]-NH2],232 nM
15,Isovaleryl-ETH[Dip]P[(n-hexyl)Gly]IK([Ahx-Palmitoyl])[β3hF]-NH2 [Isovaleric Acid-E-T-H-[Dpa]-P-[(n-hexyl)Gly]-I-[Lys(Ahx_Palm)]-[bhPhe]-NH2],427 nM
16,Isovaleryl-ET[His(τ-Me)][Dip]PAIK([Ahx-Palmitoyl])-NH2 [Isovaleric Acid-E-T-[His_1Me]-[Dpa]-P-A-I-[Lys(Ahx_Palm)]-NH2],73 nM
17,Isovaleryl-ET[His(τ-Me)][Dip]PIIK([Ahx-Palmitoyl])[β3hF]-NH2 [Isovaleric Acid-E-T-[His_1Me]-[Dpa]-P-I-I-[Lys(Ahx_Palm)]-[bhPhe]-NH2],59.7 nM
18,Isovaleryl-ETH[Dip]PAIK([Ahx-C10])[β3hF]-NH2 [Isovaleric Acid-E-T-H-[Dpa]-P-A-I-[Lys(Ahx_C10)]-[bhPhe]-NH2],123 nM
19,Isovaleryl-[Tet2]TH[Dip]PIIK([Ahx-Palmitoyl])[β3hF]-NH2 (SMILES CCCCCCCCCCCCCCCC(=O)NCCCCCC(=O)NCCCC[C@H](NC(=O)[C@@H](NC(=O)[C@@H](NC(=O)[C@@H]1CCCN1C(=O)[C@@H](NC(=O)[C@H](Cc1c[nH]cn1)NC(=O)[C@@H](NC(=O)[C@H](CCc1nn[nH]n1)NC(=O)CC(C)C)[C@@H](C)O)C(c1ccccc1)c1ccccc1)[C@@H](C)CC)[C@@H](C)CC)C(=O)N[C@H](CC(N)=O)Cc1ccccc1) [Isovaleric Acid-[Tet2]-T-H-[Dpa]-P-I-I-[Lys(Ahx_Palm)]-[bhPhe]-NH2],376 nM
20,Isovaleryl-ETH[Dip]P[hLeu]IK([Ahx-Palmitoyl])[β3hF]-NH2 (SMILES CCCCCCCCCCCCCCCC(=O)NCCCCCC(=O)NCCCC[C@H](NC(=O)[C@@H](NC(=O)[C@H](CCC(C)C)NC(=O)[C@@H]1CCCN1C(=O)[C@@H](NC(=O)[C@H](Cc1c[nH]cn1)NC(=O)[C@@H](NC(=O)[C@H](CCC(=O)O)NC(=O)CC(C)C)[C@@H](C)O)C(c1ccccc1)c1ccccc1)[C@@H](C)CC)C(=O)N[C@H](CC(N)=O)Cc1ccccc1) [Isovaleric Acid-E-T-H-[Dpa]-P-[hLeu]-I-[Lys(Ahx_Palm)]-[bhPhe]-NH2],150 nM
21,Isovaleryl-[Ala(1H-tetrazol-5-yl)]T[His(τ-Me)][Dip][ButanoicP]K([Ahx-Palmitoyl])-NH2 (SMILES CCCCCCCCCCCCCCCC(=O)NCCCCCC(=O)NCCCC[C@H](NC(=O)CCC[C@@H]1CCCN1C(=O)[C@@H](NC(=O)[C@H](Cc1cn(C)cn1)NC(=O)[C@@H](NC(=O)[C@H](Cc1nnn[nH]1)NC(=O)CC(C)C)[C@@H](C)O)C(c1ccccc1)c1ccccc1)C(N)=O) [Isovaleric Acid-[Tet1]-T-[His_1Me]-[Dpa]-[ButanoicP]-[Lys(Ahx_Palm)]-NH2],214 nM
22,Isovaleryl-ETH[Dip]PAIK([AEEA-AEEA-Palmitoyl])[β3hF]-NH2 [Isovaleric Acid-E-T-H-[Dpa]-P-A-I-[Lys(1PEG2_1PEG2_Palm)]-[bhPhe]-NH2],73.7 nM
23,Isovaleryl-ETH[Dip]P[DiethylGly]IK([Ahx-Palmitoyl])[β3hF]-NH2 [Isovaleric Acid-E-T-H-[Dpa]-P-[DiethylGly]-I-[Lys(Ahx_Palm)]-[bhPhe]-NH2],69.7 nM
24,Isovaleryl-[Ala(1H-tetrazol-5-yl)]TH[Dip]PAIK([Ahx-Palmitoyl])-NH2 (SMILES CCCCCCCCCCCCCCCC(=O)NCCCCCC(=O)NCCCC[C@H](NC(=O)[C@@H](NC(=O)[C@H](C)NC(=O)[C@@H]1CCCN1C(=O)[C@@H](NC(=O)[C@H](Cc1c[nH]cn1)NC(=O)[C@@H](NC(=O)[C@H](Cc1nnn[nH]1)NC(=O)CC(C)C)[C@@H](C)O)C(c1ccccc1)c1ccccc1)[C@@H](C)CC)C(N)=O) [Isovaleric Acid-[Tet1]-T-H-[Dpa]-P-A-I-[Lys(Ahx_Palm)]-NH2],44.1 nM
25,Isovaleryl-ETH[Dip]PAIK([Ahx-Stearoyl])[β3hF]-NH2 [Isovaleric Acid-E-T-H-[Dpa]-P-A-I-[Lys(Ahx_C18)]-[bhPhe]-NH2],82.2 nM
26,Isovaleryl-ETH[Dip]P[tBuAlanine]IK([Ahx-Palmitoyl])[β3hF]-NH2 [Isovaleric Acid-E-T-H-[Dpa]-P-[t-BuAlanine]-I-[Lys(Ahx_Palm)]-[bhPhe]-NH2],34.2 nM
